Source: a protein production outcome set (Wang et al. 2014)

Assay: label from the status in PepcDB records

## MTAGWCCRTVRAALFAAVCVLLAALGHVMMSGTAVPWWAMTVAALVTGGTGWCLAGRERGLALIVSVVVVAQGALHSAFSVAQSAAHSAGSVGADSMPKGSMGSDMSSVHMDSVHMDSMDMGNMGAGHLAHLGHDMGGGSSFGMLAAHSAAALLCGLWLAYGERAAFRILRALAGRLAAPLRLLLALPTPAHRPRIRVRRGSSDRTPRRLLLVHAITSRGPPVGTAVI
  protein production: failed

## CSPVRERRLEHQLEPGDTLAGLALKYGVTMEQIKRANRLYTNDSIFLKKTLYIPILTEPRDLFN
  protein production: not failed

## MNLTRLREKILNKSHSAMLIFSDINISYLSTFTGHAATILLTSKGNYLLTDYRYFEQAKTQASHFNVICRDRANQSLASLIEDLLFQDDCQSLSFESEHISVMQWQQIHQQISQLTKLSQIEAVSGAVEALRFIKSTSEISSIEQAAKIADTALAAMLNSVKAGVTERELAIELDYQMAKLGSEEVSFATILLFGERSALPHGIPSDKQLKLGDIILIDFGAVVNGYRSDMTRTFVFGQASAEQKHIYQLVQSAQQAAIDAVYEGVLGSHLYQQSANILLNSEYKKYAGEGLGHGVGLVLHEQPFIGPDCHTTIEKGCVITIEPGIYIPGWGGIRIEDDVVLTDEGLKILTKSPKGLIEL
  protein production: failed

## MTAQPLLVFDFDGVIVDGMAEYWWSAWMAAQRLNAEPQGLGSDAVPQGFRRLRPWVHHGWEMVLLAAEMPQLDPERWVVDYATEQDMALQRRGWSASLLQEALDQTRQQAVSSDRAAWLGLHQPFPGLVDRLQAFQEEGVDWAVLTTKTAAFTAELLESLGLRPWRLDGREAGPKPEVLLRLQRERVLAGFVEDRRATLETVRDTDGLQSLPCWLASWGYLKPSDREDLPRGIQLIDQDRLATPLAQWP
  protein production: failed

## ITERHLIEESLKESQQRWEFALEGSGDGIWDWGVMEDRLFLSARLQEMFGYARGEMGESMEQASSFILKEDRARVLSTLYRFLKEGEGQYADEFRVNCKEGGYRWIFSRGMVVKRNAQGEAARMIGIFTDI
  protein production: failed

## MNDFKNQWLRKRTFAIPASRLTGRLTTLKSDVPAADSLFWKLWNGSLDTAVQVLQTDYFKGIAAGTLDPNAYGSLMVQDGYYCFRGRDDYATAATCAQDETLREFFKAKAKSYDEYNETYHQTWHLREASGLIPGTDIKDYADYEAYVAGSLASPYMCVVMLPCEYLWPWIANFLDGYTPTNSLYRFWIEWNGGTPNGAYQMGNMLEQYRDKIDEDKAVEIFNTAMNYELKVFTSSTILTTIENGK
  protein production: not failed

## MDELFAKAPIKKVYFKLALPVVLGMITTMIYNLADTMFVAKTSDTNLVAGITIGAPLFTFLIAVSDIFGLGGSSLISRLFGERNYQLSKRVSSFCMIGGFVTGLILTAILLIFENPILHLLGAKAATYQDAADFYRIISIGAAPIVFSIIPQNLIRTEGLATQAMIATMTGTILAIILDPIFLFVFKMGAIGVGIANITGYLVTDIILIYYVLCKTEYIKLKLKYTKISGKTIKDIVAIGIPGSITNFAQSFGMALLNSSLALYGANKVAAMGITQKIYSIVILVIVGFAFGSQPLIGYNYGAKNWKRLKKILNFDILVQVVYAVVSGGLLILFARPVTALFMNQPDIVNAGSYMLIATIITTPIVGIILVYTTVFQSVGNAWAAFIMAIARQGVVYFIALETLKNIFGYHGIVWAQAVSDVITCIIGYFIYEKSLDLKDKIKN
  protein production: failed

## LRKSEERWQLAIVGTDEAIWDWDILTNHTYRSDRWFEMLGYERHEMSTFDDEWSIRIHPDDYNRVMAAQAAYLRREVPVYYTEYRLRCKDGNYKWFRSRAKGVWDEQGNPIRLVGSLGDITGRKSIELD
  protein production: not failed

## MRSTEVGRVVEDFIVLPPTPKSKWKLSDFELLHKLGGGNYGDVHLASVKDCNFVCALKRLSIKKLADFDIATQLRREIEIAFNTRHKYLLRTYAYFFDETDIYLIMEPCSNGMLYTELNRVKCFAPPTAARYVAQLAEALLYLHQHHILHRDIKPENILLDHNNNIKLADFGWSVHDPDNRRKTSCGTPEYFPPEIVGRQAYDTSADLWCLGIFCYELLVGKTPFVGKDTDQICKNIHSMHFKIPENIPSEAKDLIANLLLRDGSRRLALHRVVNHQFLLKYYYLPNNLQPPTGKRPRLDAEPTAGKEN
  protein production: failed

## MDALEIFKTLFSLVMRFSSYLPSNEEISDMKTTELYAFLYVALFGPKKMKEIAEFLSTTKSNVTNVVDSLEKRGLVVREMDPVDRRTYRVVLTEKGKEIFGEILSNFESLLKSVLEKFSEEDFKVVSEGFNRMVEALSREGR
  protein production: not failed

## MEDKAVSPIIATILLIAITVALAATFYTEVTPYFTEAQYYTPQAVTDVMNVSNGSSFSYDIYIQFFPANLTASQVEISLHVGSSYEYINLKMLSPFGKTTLNNGSITISQYPSAGYFTQGLIFVINSTLPLHSIIFVDLKTSSSINTVSI
  protein production: failed

## MSRENNVQSTRAERKTLILALVAGMCSDALLSWLTMSSVPFSLFALIALVLSAQMLYQEYLAHPVAEEVPLVGLACFFVGAFGHSAFIKAQYPQEGSNFFSIVIVLLLIFWIGRKLGYIGKPR
  protein production: failed

## MTDIHHQPEQTDDELYRHFFSRGGSLRLLADIQGEDLESLYGYAKQLFDGGEIAAARNVYQLLSTLDHWNFDYLLALGLCHQRLGAHNEAVVCFGRAGLIKVDDPRAAFYAGISYRLDGNAEYASKAFKAAINWCGEQIDYQAIKASAVDMLALQQEEVPC
  protein production: failed

## MSQPTPAVRTFQDLILALQQYWAEQGCVVLQPYDMEVGAGTFHTATFLRAIGPETWNAAYVQPSRRPTDGRYGENPNRLQHYYQFQVVLKPNPENFQELYLGSLKHVGLDPLVHDIRFVEDNWESPTLGAWGLGWEVWLNGMEVTQFTYFQQAGGIECYPVTGEITYGLERLAMYLQGVDSVYDLVWADGPFGKVTYGDVFHQNEVEQSTYNFEHANVEKLFELFDFYESEAKRLIELDQPLPLPSYEMVLKASHTFNLLDARRAISVTARQQYILRVRTLARSVAQAYLLARAKLGFPMATPDLRDEVLAKLEAAQ
  protein production: failed

## TRNTLDIRTVAHREADGSYRIKGEKFYSTGALFAHWVSIKALDDNGKTVMAFIERGTQGLRIVDDWSGFGQRTTASGTVLLDDVSVPAKQVVP
  protein production: failed

## MSPMSRAGTTVMRRIILMLIYCCLGTGLAGCDYTLREAAIVAPVDPPGGDPVQEPTDVKYYPSDEPVRLGLEHFNRGSYGLSQRYFKDAVEKSPKDLTAWIGLAASYDRLRRFDLADQAYAQAIRLGGETVQILNDQGYSYMLRGNLSAARRKFEKAYSLDPGNPVIANNLELLNGSRRFIERPPNNQP
  protein production: failed

## SLKKVITVNEWYTTTVAATMLGRRPTDEDAILVSAPATSRPNVRIKAVFDGHAGEATSQYCAKHAAKHLGKLSEFTFAEVKKACLSLDAEIIRKLGPKHVAGSTGIIVAIERLSAPVVENVVGREIVPRAHEETFVPLEKLIQEEEEAEHPELVGRYPRVPDVQQKTIPAGSFLVTAINIGDSRATLIHSDGGLTRLSKDHKPNHPTEASRIEKAGGSVETFDVPRVDGVLALSRAFGDSDFKMNPNLPPEEQKVIAVPDVRQFYALSSDLLLLACDGVYEPSGMDWAYVRDLTVAEMQRSKGDLEEVAARVMDYAYDMNSQDNISVMLVAFHNQEVEHPTAVYKVVSGQVDKVEWDVAGKKGN
  protein production: not failed

## SLPMQHVHTSPVRDYRNRCARREGETVFQVVVEETDLRVTALAELATPMAAYVGELRAQLKVWMEFQPAFRHSLVPVEVPEGAPEVVRRMAHGARLVGVGPFAAVAGTIAQMVAERFVDVSPELIVENGGDLYLYSERDRVVGILPDPASGDMVGILVRAGTAPVSLCGSSARIGHSLSLGDGDLAVVRARDASLADAAATAFGNMLRRADDVAAVTERAAQLASIGIEGVYAQCGGRIGIWGDMELAVA
  protein production: not failed

## MEETRPIDGLTDEDIREILTRYKKIALVGASPKPERDANIVMKYLLEHGYDVYPVNPKYEEVLGRKCYPSVLDIPDKIEVVDLFVKPKLTMEYVEQAIKKGAKVVWFQYNTYNREASKKADEAGLIIVANRCMMREHERLLGEK
  protein production: not failed

## SQVDDWIVGLEVEIFTFDGKEYRGIVYTYDADANCVVLARKSQDSLKSDLRILKASLVKNINVLGRSNVDQLPQQLSPLNLEALKMREEQALQKARKDLARTGVGVSQQAQEIFDALCKTLPCQWEEDSIVIFENIKLKKPYRVEDLDEIEAVNRVKVVLENELQKLQRRNT
  protein production: not failed
